For assay [1], the target named is T1, human CDH17 protein fragment, domain 1–3 (Homo sapiens, UniProt Q12864).
T1 construct: cadherin 17 (CDH17), human, domain 1–3; also called cadherin 17; CDH17 antigen; source: E. coli BL21(DE3), purified (Ni-NTA, gel filtration)
In words: SPR; affinity determination of nanobodies against human and murine CDH17 proteins. The settings on record: both partners purified. On the technique in general: SPR reads the build-up and loss of mass on a sensor chip optically.

Assay [2] deals with T2, murine CDH17 protein fragment, domain 1–3 (Mus musculus, UniProt Q9R100).
T2 construct: cadherin 17 (CDH17), mouse, domain 1–3; also called mouse CDH17; source: E. coli BL21(DE3), purified (Ni-NTA, gel filtration)
The description is as above. The settings on record: both partners purified.

The source of these data is PMC11336900, “Nanobody‐Engineered Biohybrid Bacteria Targeting Gastrointestinal Cancers Induce Robust STING‐Mediated Anti‐Tumor Immunity” (Advanced Science, 2024).

Numbering of substitutions follows the chain as printed.

T1 sequence (Q12864 whole entry, looked up, the tested form may be a part): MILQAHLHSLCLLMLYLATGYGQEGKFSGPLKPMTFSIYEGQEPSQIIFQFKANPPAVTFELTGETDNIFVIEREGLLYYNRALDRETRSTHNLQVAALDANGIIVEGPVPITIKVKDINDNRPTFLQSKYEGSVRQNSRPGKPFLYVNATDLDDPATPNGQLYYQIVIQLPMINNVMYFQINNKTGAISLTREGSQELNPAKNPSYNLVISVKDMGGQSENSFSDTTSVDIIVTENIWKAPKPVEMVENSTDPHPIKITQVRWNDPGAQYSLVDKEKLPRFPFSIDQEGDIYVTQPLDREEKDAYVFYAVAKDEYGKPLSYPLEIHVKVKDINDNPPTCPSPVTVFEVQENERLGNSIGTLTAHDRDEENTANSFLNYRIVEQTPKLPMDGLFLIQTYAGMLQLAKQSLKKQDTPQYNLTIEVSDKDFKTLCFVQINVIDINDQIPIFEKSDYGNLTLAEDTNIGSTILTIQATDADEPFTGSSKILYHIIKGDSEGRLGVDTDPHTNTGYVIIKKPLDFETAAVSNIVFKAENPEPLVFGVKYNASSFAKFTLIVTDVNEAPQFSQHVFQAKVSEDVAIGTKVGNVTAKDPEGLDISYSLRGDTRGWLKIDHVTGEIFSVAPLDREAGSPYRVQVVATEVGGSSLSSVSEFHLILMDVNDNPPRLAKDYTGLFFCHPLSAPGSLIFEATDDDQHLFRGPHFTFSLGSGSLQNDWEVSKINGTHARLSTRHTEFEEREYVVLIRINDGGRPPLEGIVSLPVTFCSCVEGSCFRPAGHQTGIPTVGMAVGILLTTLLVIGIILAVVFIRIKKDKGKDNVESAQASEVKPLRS
T2 sequence (Q9R100 whole entry, looked up, the tested form may be a part): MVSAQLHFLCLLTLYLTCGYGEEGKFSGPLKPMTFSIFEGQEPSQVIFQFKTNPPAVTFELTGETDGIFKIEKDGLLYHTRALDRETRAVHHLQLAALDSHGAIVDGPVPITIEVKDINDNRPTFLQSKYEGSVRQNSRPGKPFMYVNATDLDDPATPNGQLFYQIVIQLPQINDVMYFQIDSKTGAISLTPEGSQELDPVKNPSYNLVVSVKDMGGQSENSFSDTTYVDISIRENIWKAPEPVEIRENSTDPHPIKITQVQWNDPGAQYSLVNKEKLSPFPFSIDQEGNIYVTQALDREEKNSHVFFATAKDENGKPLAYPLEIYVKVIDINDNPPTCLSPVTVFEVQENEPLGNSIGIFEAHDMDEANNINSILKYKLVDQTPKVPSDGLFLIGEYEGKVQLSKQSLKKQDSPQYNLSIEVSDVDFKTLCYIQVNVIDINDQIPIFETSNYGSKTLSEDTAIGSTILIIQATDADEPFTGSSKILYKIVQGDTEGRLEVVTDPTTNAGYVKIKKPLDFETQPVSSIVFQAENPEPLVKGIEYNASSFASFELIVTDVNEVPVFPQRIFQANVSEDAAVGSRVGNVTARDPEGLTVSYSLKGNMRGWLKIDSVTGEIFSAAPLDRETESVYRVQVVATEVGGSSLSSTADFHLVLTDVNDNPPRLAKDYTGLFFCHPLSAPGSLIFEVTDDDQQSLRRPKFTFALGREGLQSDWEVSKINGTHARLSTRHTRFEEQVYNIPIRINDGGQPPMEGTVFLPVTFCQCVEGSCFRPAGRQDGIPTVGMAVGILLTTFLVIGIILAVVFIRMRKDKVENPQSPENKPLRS

B1: CDH17 nanobody Nb535 (VHH)
VHH: AVQLVESGGGLVQPGGSLRLSCAASGRTFSSNGMGWFRQAPGKGREFVAAISWNAGTTLYTDSVKGRFTISRDNAKNTVYLQMNSLKPEDTAIYYCAAREYYGGSYYPSREYEYGYWGQGTQVTVSS
notes: source: prokaryotic vector pColdII (TAKARA), purified (Ni-NTA); not shown: HA, C-terminal, kept
In general, Kd refers to the constant that tells how readily two partners part at equilibrium. Lower therefore signals higher affinity. On to B1, for which the dissociation constant (Kd) is 60.1 nM in assay [1] and 109 nM in assay [2].

B2: CDH17 nanobody Nb289 (VHH)
VHH: B1 VHH with P14A, G16D, K43T
notes: as the VHH of m5 (A1) with one amino acid difference at position 44; also called Nb289 nanobody; source: prokaryotic vector pColdII (TAKARA), purified (Ni-NTA); not shown: HA, C-terminal, kept
On to B2, for which the Kd in assay [1] was 20.1 nM; in assay [2] it was 32.5 nM.
